# According to publication PMC12442453:
# Tests used:
# [1] = molecular target: T1, human EPOR ectodomain (ECD) fused to a human Fc domain (EPOR-Fc), P19235; assay: BLI; conditions: chain shown with the change; solution-phase Db-Fc, immobilized EPOR-Fc
# T1 chain: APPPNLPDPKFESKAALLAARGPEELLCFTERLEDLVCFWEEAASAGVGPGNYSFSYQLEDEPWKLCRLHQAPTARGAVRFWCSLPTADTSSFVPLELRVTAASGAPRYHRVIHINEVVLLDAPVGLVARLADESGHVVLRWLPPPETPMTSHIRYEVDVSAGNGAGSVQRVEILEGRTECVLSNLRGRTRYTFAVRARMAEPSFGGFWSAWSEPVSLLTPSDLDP
# [2] = molecular target: VL–VH 1.1 without an Fc domain; assay: crystal structure; VL–VH 1.1 alone, space group P21, 2.06 Å, four chains in the asymmetric unit; 20% PEG8000, 100 mM CHES
# [3] = molecular target: T2, human EPOR, endogenous on TF-1 cells (human (endogenous in TF-1)) (UniProt P19235)
# T2 sequence: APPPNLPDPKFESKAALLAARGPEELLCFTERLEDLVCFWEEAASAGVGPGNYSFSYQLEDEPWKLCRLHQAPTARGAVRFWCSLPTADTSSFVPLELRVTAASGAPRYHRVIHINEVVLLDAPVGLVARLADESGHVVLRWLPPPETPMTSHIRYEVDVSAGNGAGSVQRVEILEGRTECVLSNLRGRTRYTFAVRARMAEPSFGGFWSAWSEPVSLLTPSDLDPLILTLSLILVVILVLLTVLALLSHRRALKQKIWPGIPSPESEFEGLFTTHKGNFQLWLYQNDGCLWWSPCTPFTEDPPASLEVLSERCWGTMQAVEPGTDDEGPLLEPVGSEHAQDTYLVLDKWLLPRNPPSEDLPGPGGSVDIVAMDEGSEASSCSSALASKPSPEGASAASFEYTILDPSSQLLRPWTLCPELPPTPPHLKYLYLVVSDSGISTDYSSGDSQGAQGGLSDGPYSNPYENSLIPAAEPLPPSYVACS
binder,measurement,setting,value
Db-Fc 1 L:Y109D; L:I116F; H:Y35R; H:I39M; H:Y59H; H:S63G; H:G114S (protein) chain 1: EVQLVESGGGLVQPGGSLRLSCAASGFNLRSYYMHWVRQAPGKGLEWVASISPHYGYTYYADSVKGRFTISADTSKNTAYLQMNSLRAEDTAVYYCARHGYSAMDYWGQGTLVTVSS chain 2: DIQMTQSPSSLSASVGDRVTITCRASQSVSSAVAWYQQKPGKAPKLLIYSASSLYSGVPSRFSGSRSGTDFTLTISSLQPEDFATYYCQQSSDSLFTFGQGTKVEIK,Kd,[1],3.8 nM
VL–VH 1.1 without an Fc domain (protein) VH: EVQLVESGGGLVQPGGSLRLSCAASGFNLRSYYMHWVRQAPGKGLEWVASISPYYSYTYYADSVKGRFTISADTSKNTAYLQMNSLRAEDTAVYYCARHGYGAMDYWGQGTLVTVSS VL: DIQMTQSPSSLSASVGDRVTITCRASQSVSSAVAWYQQKPGKAPKLLIYSASSLYSGVPSRFSGSRSGTDFTLTISSLQPEDFATYYCQQSSYSLITFGQGTKVEIK,stoichiometry N,[2],4
Db-Fc 1.3 (Fc fusion) VH: EVQLVESGGGLVQPGGSLRLSCAASGFNLRSYYMHWVRQAPGKGLEWVASISPHYGYTYYADSVKGRFTISADTSKNTAYLQMNSLRAEDTAVYYCARHGYSAMDYWGQGTLVTVSS VL: DIQMTQSPSSLSASVGDRVTITCRASQSVSSAVAWYQQKPGKAPKLLIYSASSLYSGVPSRFSGSRSGTDFTLTISSLQPEDFATYYCQQSSDSLFTFGQGTKVEIK,"UT-7/Epo cell proliferation, EC50; Hb-Fc3 fraction of variant 1.3 (putative hexamer)",[3],1.1 nM
same,"UT-7/Epo cell proliferation, EC50; purified Db-Fc fraction of variant 1.3 (putative dimer)",[3],16 nM
same,"UT-7/Epo cell proliferation, EC50; unfractionated Db-Fcmix 1.3",[3],1.8 nM
same,"UT-7/Epo cell proliferation, maximum response; Hb-Fc3 fraction of variant 1.3 (putative hexamer)",[3],3.4e+06 RLU
same,"UT-7/Epo cell proliferation, maximum response; purified Db-Fc fraction of variant 1.3 (putative dimer)",[3],600000 RLU
same,"UT-7/Epo cell proliferation, maximum response; unfractionated Db-Fcmix 1.3",[3],2.5e+06 RLU
